# Laboratory results taken from the supplement of paper PMC10266784.
# B1: library; numbered along this chain (parent)
# chain: MAAAAAAAAEQQSSNGPVKKSMREKAVERRSVNKEHNSNFKAGYIPIDEDRLHKTGLRGRKGNLAICVIILLFILAVINLIITLVIWAVIRIGPNGCDSMEFHESGLLRFKQVSDMGVIHPLYKSTVGGRRNENLVITGNNQPIVFQQGTTKLSVENNKTSITSDIGMQFFDPRTQNILFSTDYETHEFHLPSGVKSLNVQKASTERITSNATSDLNIKVDGRAIVRGNEGVFIMGKTIEFHMGGNMELKAENSIILNGSVMVSTTRLPSSSSGDQLGSGDWVRYKLCMCADGTLFKVQVTSQNMGCQISDNPCGNTH
# Variants of: B1
# Experiment: SGCB cell-surface expression functional score (HA stain, bin4 vs bin1, normalised to synonymous) (log10 ratio); higher = more cell-surface SGCB (functional)
# Protocol: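 Deep mutational scan of full-length human SGCB (YFP-SGCB-HA, NNN codon sublibraries A-F) delivered by lentivirus at low MOI into ADG-HEK293 cells stably expressing SGCA, SGCD and SGCG. YFP-positive cells were stained for surface HA on unpermeabilized cells and FACS-sorted into bins. The functional score is log10(frequency in high bin 4 / frequency in low bin 1), normalised per chunk so that synonymous variants have mean 0 and SD 0.5. Scores are the median over codons and over duplicate biological replicates; scores below -0.5 are called non-functional. Scale: negative means deleterious.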
row,Variant,SGCB cell-surface expression functional score (log10)
1,MAAAAAAAAEQQSSNGPVKCSMREKAVERRSVNKEHNSNFKAGYIPIDEDRLHKTGLRGRKGNLAICVIILLFILAVINLIITLVIWAVIRIGPNGCDSMEFHESGLLRFKQVSDMGVIHPLYKSTVGGRRNENLVITGNNQPIVFQQGTTKLSVENNKTSITSDIGMQFFDPRTQNILFSTDYETHEFHLPSGVKSLNVQKASTERITSNATSDLNIKVDGRAIVRGNEGVFIMGKTIEFHMGGNMELKAENSIILNGSVMVSTTRLPSSSSGDQLGSGDWVRYKLCMCADGTLFKVQVTSQNMGCQISDNPCGNTH [K20C],0.12
2,MAAAAAAAAEQQSSNGPVKASMREKAVERRSVNKEHNSNFKAGYIPIDEDRLHKTGLRGRKGNLAICVIILLFILAVINLIITLVIWAVIRIGPNGCDSMEFHESGLLRFKQVSDMGVIHPLYKSTVGGRRNENLVITGNNQPIVFQQGTTKLSVENNKTSITSDIGMQFFDPRTQNILFSTDYETHEFHLPSGVKSLNVQKASTERITSNATSDLNIKVDGRAIVRGNEGVFIMGKTIEFHMGGNMELKAENSIILNGSVMVSTTRLPSSSSGDQLGSGDWVRYKLCMCADGTLFKVQVTSQNMGCQISDNPCGNTH [K20A],0.08
3,MAAAAAAAAEQQSSNGPVYKSMREKAVERRSVNKEHNSNFKAGYIPIDEDRLHKTGLRGRKGNLAICVIILLFILAVINLIITLVIWAVIRIGPNGCDSMEFHESGLLRFKQVSDMGVIHPLYKSTVGGRRNENLVITGNNQPIVFQQGTTKLSVENNKTSITSDIGMQFFDPRTQNILFSTDYETHEFHLPSGVKSLNVQKASTERITSNATSDLNIKVDGRAIVRGNEGVFIMGKTIEFHMGGNMELKAENSIILNGSVMVSTTRLPSSSSGDQLGSGDWVRYKLCMCADGTLFKVQVTSQNMGCQISDNPCGNTH [K19Y],0.34
4,MAAAAAAAAEQQSSNGPVRKSMREKAVERRSVNKEHNSNFKAGYIPIDEDRLHKTGLRGRKGNLAICVIILLFILAVINLIITLVIWAVIRIGPNGCDSMEFHESGLLRFKQVSDMGVIHPLYKSTVGGRRNENLVITGNNQPIVFQQGTTKLSVENNKTSITSDIGMQFFDPRTQNILFSTDYETHEFHLPSGVKSLNVQKASTERITSNATSDLNIKVDGRAIVRGNEGVFIMGKTIEFHMGGNMELKAENSIILNGSVMVSTTRLPSSSSGDQLGSGDWVRYKLCMCADGTLFKVQVTSQNMGCQISDNPCGNTH [K19R],0.18
5,MAAAAAAAAEQQSSNGPVTKSMREKAVERRSVNKEHNSNFKAGYIPIDEDRLHKTGLRGRKGNLAICVIILLFILAVINLIITLVIWAVIRIGPNGCDSMEFHESGLLRFKQVSDMGVIHPLYKSTVGGRRNENLVITGNNQPIVFQQGTTKLSVENNKTSITSDIGMQFFDPRTQNILFSTDYETHEFHLPSGVKSLNVQKASTERITSNATSDLNIKVDGRAIVRGNEGVFIMGKTIEFHMGGNMELKAENSIILNGSVMVSTTRLPSSSSGDQLGSGDWVRYKLCMCADGTLFKVQVTSQNMGCQISDNPCGNTH [K19T],-0.07
6,MAAAAAAAAEQQSSNGPVPKSMREKAVERRSVNKEHNSNFKAGYIPIDEDRLHKTGLRGRKGNLAICVIILLFILAVINLIITLVIWAVIRIGPNGCDSMEFHESGLLRFKQVSDMGVIHPLYKSTVGGRRNENLVITGNNQPIVFQQGTTKLSVENNKTSITSDIGMQFFDPRTQNILFSTDYETHEFHLPSGVKSLNVQKASTERITSNATSDLNIKVDGRAIVRGNEGVFIMGKTIEFHMGGNMELKAENSIILNGSVMVSTTRLPSSSSGDQLGSGDWVRYKLCMCADGTLFKVQVTSQNMGCQISDNPCGNTH [K19P],0.42
7,MAAAAAAAAEQQSSNGPVWKSMREKAVERRSVNKEHNSNFKAGYIPIDEDRLHKTGLRGRKGNLAICVIILLFILAVINLIITLVIWAVIRIGPNGCDSMEFHESGLLRFKQVSDMGVIHPLYKSTVGGRRNENLVITGNNQPIVFQQGTTKLSVENNKTSITSDIGMQFFDPRTQNILFSTDYETHEFHLPSGVKSLNVQKASTERITSNATSDLNIKVDGRAIVRGNEGVFIMGKTIEFHMGGNMELKAENSIILNGSVMVSTTRLPSSSSGDQLGSGDWVRYKLCMCADGTLFKVQVTSQNMGCQISDNPCGNTH [K19W],0.32
8,MAAAAAAAAEQQSSNGPVVKSMREKAVERRSVNKEHNSNFKAGYIPIDEDRLHKTGLRGRKGNLAICVIILLFILAVINLIITLVIWAVIRIGPNGCDSMEFHESGLLRFKQVSDMGVIHPLYKSTVGGRRNENLVITGNNQPIVFQQGTTKLSVENNKTSITSDIGMQFFDPRTQNILFSTDYETHEFHLPSGVKSLNVQKASTERITSNATSDLNIKVDGRAIVRGNEGVFIMGKTIEFHMGGNMELKAENSIILNGSVMVSTTRLPSSSSGDQLGSGDWVRYKLCMCADGTLFKVQVTSQNMGCQISDNPCGNTH [K19V],-0.01
9,MAAAAAAAAEQQSSNGPVSKSMREKAVERRSVNKEHNSNFKAGYIPIDEDRLHKTGLRGRKGNLAICVIILLFILAVINLIITLVIWAVIRIGPNGCDSMEFHESGLLRFKQVSDMGVIHPLYKSTVGGRRNENLVITGNNQPIVFQQGTTKLSVENNKTSITSDIGMQFFDPRTQNILFSTDYETHEFHLPSGVKSLNVQKASTERITSNATSDLNIKVDGRAIVRGNEGVFIMGKTIEFHMGGNMELKAENSIILNGSVMVSTTRLPSSSSGDQLGSGDWVRYKLCMCADGTLFKVQVTSQNMGCQISDNPCGNTH [K19S],0.21
10,MAAAAAAAAEQQSSNGPVQKSMREKAVERRSVNKEHNSNFKAGYIPIDEDRLHKTGLRGRKGNLAICVIILLFILAVINLIITLVIWAVIRIGPNGCDSMEFHESGLLRFKQVSDMGVIHPLYKSTVGGRRNENLVITGNNQPIVFQQGTTKLSVENNKTSITSDIGMQFFDPRTQNILFSTDYETHEFHLPSGVKSLNVQKASTERITSNATSDLNIKVDGRAIVRGNEGVFIMGKTIEFHMGGNMELKAENSIILNGSVMVSTTRLPSSSSGDQLGSGDWVRYKLCMCADGTLFKVQVTSQNMGCQISDNPCGNTH [K19Q],-0.12
